B1: Azoarcus group I ribozyme (parent)
chain: GUGCCUUGCGCCGGGAAACCACGCAAGGGAUGGUGUCAAAUUCGGCGAAACCUAAGCGCCCGCCCGGGCGUAUGGCAACGCCGAGCCAAGCUUCGGCGCCUGCGCCGAUGAAGGUGUAGAGACUAGACGGCACCCACCUAAGGCAAACGCUAUGGUGAAGGCAUAGUCCAGGGAGUGGCGAAAGUCACACAAACCGG

Variants of B1 are the subject of the series. The experiment in a line: reverse-splicing fitness (ratio to wild type); higher = more active; in vitro selection; Mg2+ level not given. The method in brief:
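An in vitro group I ribozyme library with randomized positions was T7-transcribed and gel-purified. In triplicate, 10 pmol RNA in EPPS pH 7.5 was reacted with 50 pmoles of a 30-nt RNA substrate for 1 h at 37 °C across several added MgCl2 levels (1–48 mM), then stopped with EDTA. Products were reverse transcribed from a substrate-complementary primer, PCR-amplified and sequenced (HiSeq 4000). Fitness is a variant's read proportion after selection over that before, normalised to wild type.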
With C82G A120C C150G C169U, the reverse-splicing fitness amounted to 0.0121.
Next, C82G A120C C150G C169A: 0.00942; C82G A120C C150G C169G: 0.00797; C82G A120G A145C C169A: 0.0237.
In the case of C82G A120G A145C C169U, the reverse-splicing fitness was determined as 0.0209.
Next, C82G A120G A145C C169G: 0.0468.
For C82G A120C A145G C150U C169U U176A the value was 0.0184.
C82G A120C A145G C150U C169U U176G: the reverse-splicing fitness was found to be 0.00474.
Next, C82G A120C A145G C150U C169U U176C: 0.0155.
Turning to C82G A120C A145C U176C, the reverse-splicing fitness was 0.0842.
For C82G A120C A145C U176A the value was 0.0678.
As to C82G A120C A145C U176G, the reverse-splicing fitness is 0.0157.
Turning to C82G A120C A145U C150G C169A U176G, the reverse-splicing fitness amounted to 0.00473.
For the variant C82G A120C A145U C150G C169A U176C, the reverse-splicing fitness turned out to be 0.0102.
Next, C82G A120C A145U C150G C169A U176A: 0.0119.
Next, C82G A120G A145C C150U C169U: 0.0103.
For C82G A120G A145C C150U C169A the value was 0.0116; for C82G A120G A145C C150U C169G, 0.0163; for C82G A120G, 0.029.
Consider C82G A120G A145C C150U C169U U176A, for which the reverse-splicing fitness came to 0.0184.
For C82G A120G A145C C150U C169U U176G the value was 0.00404.
For C82G A120G A145C C150U C169U U176C the value was 0.0138.
For the variant C82G A120C C150G U176C, the reverse-splicing fitness amounted to 0.0138.
Next, C82G A120C C150G U176A: 0.00858.
For C82G A120C C150G U176G the value was 0.00413.
For C82G A120C A145U C150G U176C the value was 0.0164; for C82G A120C A145U C150G U176G, 0.00444; for C82G A120C A145U C150G U176A, 0.00942.
For the variant C82G A120C C169A U176A, the reverse-splicing fitness was 0.0185.
For C82G A120C C169A U176G the value was 0.00393; for C82G A120C C169A U176C, 0.0179; for C82G A120G A145C C150A C169U U176G, 0.00463.
On to C82G A120G A145C C150A C169U U176A, for which the reverse-splicing fitness came out at 0.0196.
Next, C82G A120G A145C C150A C169U U176C: 0.0106.
Next, C82G A120C A145U C150G C169G: 0.00766.
On to C82G A120C A145U C150G C169A, for which the reverse-splicing fitness is 0.00974.
For C82G A120C A145U C150G C169U the value was 0.0102; for C82G A120G A145C C150G C169U U176A, 0.0154.
As to C82G A120G A145C C150G C169U U176C, the reverse-splicing fitness is 0.0125.
Consider C82G A120G A145C C150G C169U U176G, for which the reverse-splicing fitness is 0.00495.
Next, C82G A120G A145G C169A U176G: 0.00439; C82G A120G A145G C169A U176A: 0.0185; C82G A120G A145G C169A U176C: 0.0269.
Next, C82G A120C C150G C169A U176A: 0.01; C82G A120C C150G C169A U176C: 0.0106.
Take C82G A120C C150G C169A U176G: the reverse-splicing fitness turned out to be 0.0082.
For the variant C82G A120C A145G C150A C169U U176C, the reverse-splicing fitness turned out to be 0.0165.
Regarding C82G A120C A145G C150A C169U U176G, the reverse-splicing fitness is 0.00589.
For C82G A120C A145G C150A C169U U176A the value was 0.0145; for C82G A120G A145G C150A C169U U176C, 0.0168.
For C82G A120G A145G C150A C169U U176A, the reverse-splicing fitness came out at 0.021.
As to C82G A120G A145G C150A C169U U176G, the reverse-splicing fitness was found to be 0.00581.
For C82G A120G A145C the value was 0.0276.
For C82G A120G A145G, the reverse-splicing fitness is 0.0281.
For C82G A120G A145C C150A C169G U176A, the reverse-splicing fitness stood at 0.0232.
Next, C82G A120G A145C C150A C169G U176G: 0.00456; C82G A120G A145C C150A C169G U176C: 0.0136; C82G A120G A145G C150G C169A U176C: 0.013.
For C82G A120G A145G C150G C169A U176G the value was 0.0077; for C82G A120G A145G C150G C169A U176A, 0.013; for C82G A120G A145G C150A C169G U176G, 0.00507.
In the case of C82G A120G A145G C150A C169G U176A, the reverse-splicing fitness is 0.0188.
With C82G A120G A145G C150A C169G U176C, the reverse-splicing fitness was determined as 0.0296.
C82G A120G A145C C150G C169A: the reverse-splicing fitness came to 0.0102.
On to C82G A120G A145C C150G C169U, for which the reverse-splicing fitness was found to be 0.00976.
Turning to C82G A120G A145C C150G C169G, the reverse-splicing fitness was 0.0108.
As for C82G A120C U176A, the reverse-splicing fitness was determined as 0.0764.
For the variant C82G A120C U176G, the reverse-splicing fitness was found to be 0.0151.
Next, C82G A120C U176C: 0.107; C82G A120C A145U C150A C169G U176C: 0.0161.
With C82G A120C A145U C150A C169G U176G, the reverse-splicing fitness turned out to be 0.00461.
Next, C82G A120C A145U C150A C169G U176A: 0.014.
For the variant C82G A120C A145G, the reverse-splicing fitness stood at 0.21.
Next, C82G A120C A145U: 0.21.
For C82G A120G A145G C150G C169U U176C the value was 0.0139; for C82G A120G A145G C150G C169U U176A, 0.0131.
Turning to C82G A120G A145G C150G C169U U176G, the reverse-splicing fitness was 0.00717.
For C82G A120C A145G C150U C169G the value was 0.00909; for C82G A120C A145G C150U C169U, 0.0243; for C82G A120C A145G C150U C169A, 0.0102.
C82G A120C C150A C169A U176A: the reverse-splicing fitness was found to be 0.0216.
Next, C82G A120C C150A C169A U176C: 0.0213; C82G A120C C150A C169A U176G: 0.00601.

The values above are taken from the RNAGym collection of RNA variant scans (doi:10.1093/molbev/msab373).
